The data set relates to Saccharomyces cerevisiae. Kind of data set: transcriptional activation domain activity (GFP:mCherry ratio, weighted mean of sorted bins, harmonized to initial dataset scale) (arbitrary fluorescence ratio units); higher = stronger transcriptional activation. The note with it: beta-estradiol 1 µM; induction time 4 h. How it is done:
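53-aa protein tiles (fungal proteins plus yeast TF control tiles) fused C-terminally to a DBD-estrogen-binding domain-mCherry synthetic TF, integrated in S. cerevisiae (URA3 locus) with a GFP reporter. Cells were induced with 1 uM beta-estradiol for 4 h at 30 C, FACS-sorted into 8 bins by GFP:mCherry ratio and barcodes sequenced. Activity is the read-weighted mean bin fluorescence (GFP:mCherry), averaged over barcodes (median 12); tiles under 50 reads were discarded. New active-learning values were harmonized by linear fit onto the scale of the initial (Hummel et al.) dataset. The assay saturates at low and high signal.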
For the sequence “APSAARRSHTKSSPSSGTSPSGPPSARTSSRCTPPPRSSSPSGRRRSSCCKRS”, the “transcriptional activation domain activity” value was 45900.

Regarding “HFNSVTTTYFKDGQSFYDILKCILPCIVDFLPKNSILVHCICAYLHFRILVGL”, the “transcriptional activation domain activity” value stood at 53500.

As to “MKTPPPQLGFFVGVLVLYAFFFIFLFFYFLFYGDIHLKQEDIIYVWNTYWAIW”, the “transcriptional activation domain activity” value was 20200.

Take “MPTITLAWPERAYFYSLLVVSLLSAKLLHVFSHLTTIPIFLFLLYFPTFLFLD”: the “transcriptional activation domain activity” value was found to be 59600.

Consider “FPTLGFVVDRYFRVTNFVPETFWSIKVVHKKDSINVNFNWKRGHLFDRMTVTV”, for which the “transcriptional activation domain activity” value came out at 71400.

As to “NNLLELITDIIIALDMNFVNCMTCVDDDEKALMTLRICEYFIDRLVRTIMVAT”, the “transcriptional activation domain activity” value is 51300.

Consider “TMFHGLLFHLCHGAAVLVVWSFHHVVCSMRDDEETLQVMEELDYVIHVLNAFA”, for which the “transcriptional activation domain activity” value was 47800.

As to “KNDCCFCYALGLFIRMDCFLRIFVCLCFDVGLYAIEFDLCSLLLACIHVHFSH”, the “transcriptional activation domain activity” value was 36300.

As for “MSDWEEKWSKSRNRPYYFNKTTNESVWDKPDGFDGPAAKPPGSEGKVRASHLL”, the “transcriptional activation domain activity” value came to 38300.

In the case of “SFLIGGGSAFWLITYGLFYWASRLSLDSLASVVLYLGYLFLLALFDFLITGTI”, the “transcriptional activation domain activity” value was found to be 36700.

For “MPLPLIFVYLSGQMLSFLGSLFGVYMYFASLVLNYLGLFSSLRLRLWSFFLTA”, the “transcriptional activation domain activity” value came to 66200.

Consider “ITPYPVLLSGEDTSSKISRMRKVLRDRARTDNWIYLIPTLSTLAWLFNYRCRT”, for which the “transcriptional activation domain activity” value came out at 66100.

“RKEGGGHGSSSRRDRDRDRDRSDRHRSSKKSSSSNNHDADGTAAAAADASGVH”: the “transcriptional activation domain activity” value stood at 18200.

For the sequence “AQEEFRTYIQEHLVAEQVIAADESSKDDHTIIQHFGRAPHVLWLLLVLMAIWL”, the “transcriptional activation domain activity” value came to 78200.

“RDVYYILHWVVAFTLVRATVMYKMLEPFIKWYGVRSQHKIMRFGEQGWLTIYY”: the “transcriptional activation domain activity” value came to 59800.

Consider “MAQTTPESASSSQSTLARGKACLRCRKRKMRCDGAKPACGQCVKAHKPDACQY”, for which the “transcriptional activation domain activity” value was 24400.

Regarding “ATIMYLGLCITFLPFLVIYVIYNICSAFYVVLLGLGLLVYWLTRNSRLLKWAF”, the “transcriptional activation domain activity” value was determined as 45800.

“SGQSVVWEAQKLVHKGFLIDAHVVVVFYVMGCFFIYVLARLRCSNPKLIVMQI”: the “transcriptional activation domain activity” value was found to be 62800.

With “TPKKAKKSAERVDDSDASDDGDGYGGGGGEDGRKRAAKPKKGKRAAAGGGSAG”, the “transcriptional activation domain activity” value was found to be 26200.

With “RKRKASASPERDEEGKSGPKGRGRTARRGSKAGRGKSGGTQRGGRKGASEREV”, the “transcriptional activation domain activity” value was 38500.

Turning to “IPTPFASHAFNPFDGFLQSLPYHLYAYFIPMHKYLYLSMFVFVNFWTVMIHDG”, the “transcriptional activation domain activity” value was 50600.

With “MTRAFTIMINLITIVLSFLMSQSFTSYVCHILLCPLANLRPQLLYIWWVSPVL”, the “transcriptional activation domain activity” value came out at 54200.

Regarding “TRCLLMYMYFLQDIGIYIYCILILNLFRKVRRLIPFPSRVLMVLHVITICIFT”, the “transcriptional activation domain activity” value is 74300.

Take “AGTVPLMIYSTRLARESIGAWRLACLTLFIVTQIRGSVVLLAKSKLWTHILSC”: the “transcriptional activation domain activity” value turned out to be 74600.

Regarding “KSEKPEKERKHRDKGEREHRDRSEREHKVREPKEPREKGEKEKRHKTAEEKAG”, the “transcriptional activation domain activity” value came out at 16900.

Take “DQVMKIKPVQKQTTAGQRTRFKAVVVVGDSNGHVGLGVKTAKEVATAIRAAII”: the “transcriptional activation domain activity” value stood at 72700.

Take “FFFFLLFCFSFLYRLLSLYLFLFPFDFFFFSPWFCSNSRFYLRFVSFFPFFFF”: the “transcriptional activation domain activity” value was determined as 50200.

“SYINTHNSNDNNNLMGSQARSNSQTPTASTIYEEAESQSSYLDDMFRTSQGGR”: the “transcriptional activation domain activity” value was found to be 43100.

With “LENTNNNGSNVNAATNDTSASTNNINNNNAICQSASLLNDPLETLDFTKCIFA”, the “transcriptional activation domain activity” value stood at 46900.

“VLRLFNDVWAVTLTQLSILALVGVYLILPYYNVLQCCLIRQDVVLLYLPAFLV”: the “transcriptional activation domain activity” value worked out at 66500.

With “PHHKWVVPTPFSSHAFHPVDGWLQSIPYHIFILVFPLHRVLYLVLFVLINFWT”, the “transcriptional activation domain activity” value is 59200.

With “YFYMRLISCLGLIAHSPMLWATGHNSARHELIQKMDFFPKRIGYLLSRLCVLI”, the “transcriptional activation domain activity” value worked out at 51600.

Regarding “VGISLFLIACKLYLTVYYNELLISNPASAKSIYKILEYVNIMVYVSKAFGMYQ”, the “transcriptional activation domain activity” value was found to be 62800.

For the sequence “SLLVWEFCLRHPEVRDVCDLGQMIFWNNKGAFYFTAFMFILNNTFIQGLHCLV”, the “transcriptional activation domain activity” value was found to be 72600.

For the sequence “QKPEAAANATAVGEKKEVEEELKKVVEAKPEGKTEAGPAKEEGKAAEAAPAKA”, the “transcriptional activation domain activity” value amounted to 52800.

As for “LIHLMNIAQVVILFVHRFIFGVIPLFEIKTCSFWPLLVSLWHLNYIIIYSIMF”, the “transcriptional activation domain activity” value was determined as 51600.

As for “QCAYVLEHCMDATPGIFNYIQLYYCSPVRPLVFVLLCAWLLFLFGFVGIAASD”, the “transcriptional activation domain activity” value is 23300.

In the case of “PSFLWWLPLVLFVMATGIFVILSFLLFLIIHGLYYIVPLWQKCGSIHVCVSVL”, the “transcriptional activation domain activity” value is 52700.

In the case of “SFSLSVLSFFFFSIWLPLPPLSLSLSLFSPHLFPPLPFTLSLWVQWLYTFSYY”, the “transcriptional activation domain activity” value is 79300.

With “SNGTSLFVTCWVALNVFFHFYRLPLRWDFFFVFADRAGLIFIVNLPLLYLLAA”, the “transcriptional activation domain activity” value was 59500.

As to “RYNHLFDETLVAICVLLGRIGGRFIVDDFEVMWCHNLFRTKVVKAIVVFALAY”, the “transcriptional activation domain activity” value is 39600.

With “EEVKPVMAAETKPEEKKASEEAKPEEKSAETSTDKSSGVNRNAVAAAASAATS”, the “transcriptional activation domain activity” value came out at 32400.

For the sequence “GSSTTPARCTSARTMRSASYGASKYKGREGKVTQVYRKKWVIHVQRDKVGQVR”, the “transcriptional activation domain activity” value was 83200.

Regarding “GLPVVLVLVFFGLPTTGFLVFFPADFLVVFFAFLATFLKVVFKGFFAFLLFFP”, the “transcriptional activation domain activity” value is 74300.

For “SLHLAGCMLITCIGFIVLACLDVSQHIGAGYFCCFLLCCGGYISSPLLSTWYN”, the “transcriptional activation domain activity” value turned out to be 94700.

Consider “MCFVVFIRWELLMISHCAVVYLLLLFLLFIVHYFLIEGFLFLYVLVRAFAFVL”, for which the “transcriptional activation domain activity” value is 41900.

As for “CLMVVFLIVQLLVITVARRCRKTDARFVLERVFLKTHLGLYVFCLLITNFASG”, the “transcriptional activation domain activity” value turned out to be 50200.

“ISLCLLHCVIMVFGLGLQLLVPSIYTRIEHVSYESTWNFAYYCAGWFMLKVCI”: the “transcriptional activation domain activity” value amounted to 38100.

As to “MCGLVFLFLFPFVFSSFIGGVAIFFFSYFFYFIYFILQHTRILTCTWSVFLLF”, the “transcriptional activation domain activity” value worked out at 75400.

As for “EKDKENDKGEKGEGEKKGENRRGRRRGGRGRGGGGDKDKEKEKDGGGGGGAKR”, the “transcriptional activation domain activity” value was found to be 47000.

Take “MADACGSNPGGKSVKDVRAEQESKRARGALSCAECRRLKLRCDKRVPCSSCQR”: the “transcriptional activation domain activity” value is 25400.

On to “QRKLLWMCVHNIESLVCLGTGRGISSKITDNMLGMLISTKIFNLAEAGLRLEI”, for which the “transcriptional activation domain activity” value is 67000.

As to “WFAKFVVRLVYCLAWVRGQLLRRSSPIQTMMLALRCPHVLPWIDAGTPRLYIY”, the “transcriptional activation domain activity” value is 54700.

For the sequence “MLQVALYMRSSSLIISIWPRLSCSRFLLVLQLIVFSFHCQLVYSIYLMLLAFS”, the “transcriptional activation domain activity” value was determined as 58300.

In the case of “SLSTFVYTFLRFHFYFFAFFLVALTFSFFLLFCSLFVCPVGIIFLYFFIFFVL”, the “transcriptional activation domain activity” value is 52100.

In the case of “PKDSEPEGADKLKPMQEVYGAVRNTGIGTEVDNRDNMIRGRWRKLLHARLAHL”, the “transcriptional activation domain activity” value is 43500.

As to “LGLLLVVSVRIVVTLFSLFFFILLLVALGLIILIIALIVKAIIIVVYFFFFFV”, the “transcriptional activation domain activity” value is 20400.

On to “CVCRMILAPLLHLFISFFLLCMAAVASPPLRWILWYYWGCFTVQEVNWHMLRF”, for which the “transcriptional activation domain activity” value amounted to 45500.

Regarding “KHPQNTTTDIENEVENPVTDDNGNLKLELPDNLDNADFSKLLEFDAKNDEALF”, the “transcriptional activation domain activity” value stood at 33600.

For “PNIHSLHSLYTFRFLHIHSFHNLFFLPFFYFLYSLCFLHLPCFLSFLRFLHLL”, the “transcriptional activation domain activity” value was 63900.

“AATTDGEASANEGALVPAGEGAAEGEAKKPRQRKPRVARPPRPAGEEPTGEPS”: the “transcriptional activation domain activity” value stood at 45500.

Take “IQAEGLYDCRYSSYGIELLRYAFYFGMFLFLLRSGWYITSSVFLGTLWHQLSF”: the “transcriptional activation domain activity” value came to 21100.

Regarding “PSDSRSRSRSRSASRKRGGAGRGGRSDSSDSEGDNSRRRQVSPARRRQRPARG”, the “transcriptional activation domain activity” value is 38300.

“GMKRFLPLCFVMYTLWCTTISITWKLICFLSVTADSTPTIQWRLLCMLFWYLF”: the “transcriptional activation domain activity” value came to 33700.

For the sequence “AAGAAAPAKAAPAGARKARKGAAAAAPAAAPAAGAAPAQGAAAKKGGRLGGAA”, the “transcriptional activation domain activity” value worked out at 30000.

In the case of “MLSSWSTSLNLVFFSLTWTTIAMTYSPLQLEFFAPLLLRTFLYLLPSALFLLF”, the “transcriptional activation domain activity” value was 67600.

For “CKAHCGYILGHINIFQPLNWIFVKSSKVFPIDYILYLLLVLFFFCSSVVGIAT”, the “transcriptional activation domain activity” value turned out to be 28100.

Take “RFLSFLLLLLVFFYPFVFFVLALVLCTFWSLFPSNTPLHSLVCRLQLLHPFVF”: the “transcriptional activation domain activity” value was found to be 41400.

“SNVFPTQLLARHQKEIKRFKRMLAIVRWFEVCFALLRIKYLMKLFWFSVEFCN”: the “transcriptional activation domain activity” value was 50000.

Take “GAQTSGPSSSAGSNNNSSSSSSEEDEPATGGSNGTQLKGKPRKTAAKRATSSG”: the “transcriptional activation domain activity” value amounted to 35300.

As for “SRSRSRDRHRRSSRRHRRRSPSASRSRSASRSRRRRHSKRRSREKRHSSRRHR”, the “transcriptional activation domain activity” value came to 30200.

Values taken from the supplement of paper PMC12636428.
